The values that follow come from patent EP2275116A1.

For this test, the target named is human p21-activated kinase 1 (PAK1) (human) (UniProt Q13153). As to the kind of experiment: cell-based or functional assay.
Chain of UniProt Q13153 (Q13153 whole entry R237L/F379S, form in doubt): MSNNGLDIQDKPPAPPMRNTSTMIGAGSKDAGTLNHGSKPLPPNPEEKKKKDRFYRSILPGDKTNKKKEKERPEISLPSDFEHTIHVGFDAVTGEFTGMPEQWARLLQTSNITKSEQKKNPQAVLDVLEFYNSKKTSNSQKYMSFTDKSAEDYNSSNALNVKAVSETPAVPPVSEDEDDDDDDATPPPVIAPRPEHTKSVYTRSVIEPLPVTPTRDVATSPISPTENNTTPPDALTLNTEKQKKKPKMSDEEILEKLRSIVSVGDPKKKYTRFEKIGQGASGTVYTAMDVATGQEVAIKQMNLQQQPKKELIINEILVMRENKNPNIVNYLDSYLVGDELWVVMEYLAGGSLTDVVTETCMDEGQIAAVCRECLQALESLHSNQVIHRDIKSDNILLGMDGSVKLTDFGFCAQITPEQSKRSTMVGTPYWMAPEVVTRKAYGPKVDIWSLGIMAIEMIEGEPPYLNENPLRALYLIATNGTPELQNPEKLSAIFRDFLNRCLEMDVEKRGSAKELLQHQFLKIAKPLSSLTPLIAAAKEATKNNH

For the substance “HA-tagged PAK1 inhibitory domain (PAK1 residues 83 to 149) (from UniProt P35465 83-149)”, the inhibition of IL-1β induced expression of PGE2 in SW1353 cells (ELISA of supernatant) is greater than 50%, the inhibition of IL-1β-induced expression of MMP13 in SW1353 cells (ELISA of supernatant) was found to be 55% and the inhibition of basal MMP13 expression in non-stimulated SW1353 cells (ELISA of supernatant) was greater than 80%.
